For one series, the system named is SW620 tumor. The experiment in a line: Tumor inhibition in SW620 tumor-bearing mice. The format is in vivo, Female SCID mice. The conditions noted are these: for tumor growth: single dose, FIG. 14. As to the method:
(§1) The anti-tumor efficacy of hHE4-G1W-DXd and cHE5-G1W-DXd was evaluated in SW620 tumor-bearing mice. Female SCID mice were subcutaneously injected with SW620 cells in the dorsal region to establish the xenograft model. After tumor establishment, mice were randomly divided into nine groups and treated with a single dose. Three groups served as negative controls: one group received PBS, and two groups received IgG-DXd at low dose (3 mg/kg) and high dose (6 mg/kg), respectively. Experimental groups were administered with hHE4-G1W-DXd, cHE5-G1W-DXd, or patritumab-DXd at 3 mg/kg or 6 mg/kg. The average Dxd-to-antibody ratio was 8. Mouse body weights and tumor volumes were measured.

Series [1] deals with A375 cells overexpressing human HER3. In words: ADC cytotoxicity, CellTiter-Glo. The format is cell-based. The conditions noted are these: Example 21, FIG. 13.
The subject of the next series is DiFi tumor. The experiment in a line: Tumor inhibition in DiFi tumor-bearing mice. The format is in vivo, Female SCID mice. The protocol:
as §1, with “DiFi” for “SW620”, “once per week for three weeks.” for “with a single dose.”

For series [2], the system named is HER3-overexpressing A375 cells. The experiment in a line: Cell imaging of internalization. The format is cell-based. The conditions noted are these: 100 nM, FIG. 11. The protocol: A cell imaging microplate detection system was used to monitor the internalization of hHE4-G1W, hHE4-G1W-DXd, patritumab, and patritumab-DXd after binding to HER3 on the surface of A375 tumor cells. hHE4-G1W, hHE4-G1W-DXd, patritumab, and patritumab-DXd (each 100 nM) were incubated with HER3-overexpressing A375 cells at 4°C for 30 minutes, respectively. Unbound antibodies were removed by washing, and PE-labeled goat anti-human Fc secondary antibody (Jackson) was added. The mixture was incubated at 4°C for 30 minutes, and then the unbound secondary antibody was removed by washing. When the antibodies were bound to the surface of A375 cells and had not yet undergone internalization, these samples were designated as the 0h samples. Fluorescence images were acquired using a Biotek Cytation 1 imaging reader. Cells were then incubated at 37°C for 3 hours and imaged again.

Series [3] concerns HER3-expressing HCC1569 cells. The experiment in a line: ADC cytotoxicity. The settings on record: FIG. 13. The format is cell-based. As to the method:
(§2) A375 and OVCAR3 cells were seeded in 96-well plates at 5,000 cells per well, and gradient-diluted ADCs (cHE4-G1W-DXd, cHE5-G1W-DXd, cHE7-G1W-DXd, patritumab-DXd, and IgG-DXd) were added. After incubation at 37°C for 5 days, cell viability was measured using CellTiter-Glo (Promega) to evaluate cytotoxicity of the ADCs.
(§3) The cytotoxicity of antibody-drug conjugates based on hHE4-G1W against HER3-expressing HCC1569, A375, and JIMT-1 tumor cells was tested. Antibody-drug conjugates were prepared as described in Example 11. Hydrophobic interaction chromatography indicated the antibody-to-Dxd ratios for cHE4-G1W-DXd, hHE4-G1W-DXd, patritumab-DXd, and negative control IgG-DXd were 1:7, 1:8, 1:7.8, and 1:8, respectively.

Series [4] relates to human HER3-overexpressing JIMT-1 cells. The experiment in a line: ADC cytotoxicity. The format is cell-based. The settings on record: FIG. 13. As to the method: as §2, §3

B1: hHE4-G1W-DXd (conjugate)
heavy: QVQLVESGGGLVKPGGSLRLSCAASGFTFSSYVMSWVRQAPGKGLEWVATISDGDSSTYYADSVKGRFTISRDNAKNSLYLQMNSLRAEDTAVYYCARDKGHGYDEGAFVYWGQGTLVTVSS
light: DIQMTQSPSSLSASVGDRVTITCRASENIYSYLAWYQQKPGKAPKLLIYNAKTLAEGVPSRFSGSGSGTDFTLTISSLQPEDFATYYCQNHYGTPYTFGQGTKLEIKR
modifications: left off: a dimerising Fc or GST
As to B1, the tumor growth result in the series with SW620 tumor (3 mg/kg) is on record as “prevented tumor growth”; in the series with SW620 tumor (6 mg/kg) it was “complete tumor regression in one mouse”. Also, the “tumor inhibition compared with patritumab-DXd” value in the series on SW620 tumor (overall conclusion, SW620) is recorded as “superior tumor inhibition against SW620 tumor compared with patritumab-DXd”; in the series on DiFi tumor (low dose of 3 mg/kg, once per week for three weeks) it was “superior tumor inhibition compared with patritumab-DXd”; with DiFi tumor (overall conclusion, DiFi) it was “equivalent or improved tumor inhibition against DiFi tumors compared with patritumab-DXd”. The “cytotoxicity against A375 cells” value in series [1] is on record as “significant cytotoxicity”. Further, the “binding to HER3 on the surface of A375 cells” value in series [2] (0 hour) is on record as “bound to HER3 expressed on the cell surface”. In addition, the “internalization into A375 cells” value in series [2] (after 3 hours at 37°C) is given as “internalized into the A375 cells”. In addition, the “cytotoxicity against HCC1569 cells” value in series [3] is listed as “significant cytotoxicity”. The “cytotoxicity against JIMT-1 cells” value in series [4] is listed as “significant cytotoxicity”. The “cytotoxicity compared with patritumab-DXd” value in series [4] (JIMT-1 cells) is “superior cytotoxicity compared with patritumab-DXd”.

The values are drawn from patent publication EP4725966A1, “HUMAN EPIDERMAL GROWTH FACTOR 3 ANTIBODY, PREPARATION METHOD THEREFOR, AND USE THEREOF” (priority 2023, dated 2024).
